# Results as given in the RNAGym collection of RNA variant scans (doi:10.1073/pnas.2313332121).
# B1: TPR t1 (parent)
# chain: GACCAAUCUGCCCUCAGAGCUCGAGAACAUCUUCGGAUGCAGAGGAGGCAGGCUUCGGUGGCGCGAUAGCGCCAACGUCCUCAACCUCCAAUGCAUCCCACCACAUGAUGAUGCCUGAAGAGCCUUGGUUUUUUG
# Variants of: B1
# Test: polymerase ribozyme fitness, log enrichment relative to wild type (log ratio); higher = more active; in vitro selection for triplet polymerase activity
# How it was run: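 To select mutant libraries of each subunit of a heterodimeric triplet polymerase ribozyme, built by PCR and transcribed, each was annealed with a biotinylated primer, partner subunit and triplets, then incubated frozen at −7 °C. Extended constructs were gel-excised, captured on streptavidin beads and amplified by RT-PCR, in one round carried out in triplicate. Illumina sequencing of input and output libraries kept genotypes with ≥10 input reads and ≥1 read per output. Fitness is the base-2 logarithm of genotype enrichment relative to wild-type enrichment, from inverse-variance-weighted replicate averages.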
row,Variant,polymerase ribozyme fitness (log ratio)
1,C62U C76G U78A,-0.661
2,G63A C99A A121C,-5.41
3,G63C A91G G113A,-2.9
4,C62G C85A C102U A121U C124U,-4.13
5,G63A C88U G120A G122U,-0.851
6,C62G C115U,-2.93
7,C62U G117C G128A,-6.43
8,C62G C88U,-1.37
9,C62U U78G,-0.0458
10,G63A A111U G122A,-6.48
11,C62A U133G,-2.87
12,G63A A66U,-2.44
13,G61U G77A,-0.736
14,G61U U130C,0.445
15,G61U U81C C101G,-2.09
16,C62U C85G U87C,-2.53
17,G63A G120C,0.337
18,C62A C123A,-0.607
19,C62A C123G,0.748
20,C62A C123U,0.181
21,G63A G71C,-3.85
22,C62A C72G G120U U129G,-3.88
23,C62G G113A C114G A121U,-4.27
24,G63A C82U,-1.51

row,Variant,polymerase ribozyme fitness (log ratio)
1,G63A G69C,-6.1
2,G63A U78C G93A G122A,-2.28
3,C62G C79U G110A,-2.71
4,C62U U87A,0.539
5,C62U A105U,-2.19
6,C62U C64U C102A U126G,-4.31
7,C62U C70G,-3.65
8,C62A A84G G117A,-5.26
9,C62A C70U C86A,-4.26
10,C62A C85U A121G,0.356
11,G61U U126A,-1.86
12,G63A G117A,-2.26
13,G63A G117C,-3.7
14,C62A C73A,-2.4
15,G63A A95C,-2.22
16,G63A A95U,-0.563
17,C62A U78C U112A U116A,-3.11
18,C62A U112A,-0.111
19,C62A U112C,0.245
20,C62G U96A C123U,-3.13
21,G63A G107U,-5.22
22,G63C A111C,-0.587
23,C62G C64U,-3.51
24,G61U U129G U133A,-2.01

row,Variant,polymerase ribozyme fitness (log ratio)
1,C62U G113C,-2.79
2,C62U G113U,-3.01
3,G61U G65A,-4.98
4,C62G G120C,-0.544
5,C62G G120A,-0.673
6,G61U G120C,1.18
7,G61U G120U,1.51
8,C62U C86G G117A A119U,-0.588
9,C62A C79A C115A G127A,-3.94
10,C62A U81C C82A C98U,-4.18
11,C62G C86A C99U C101U A121G G122U,-5.18
12,C62U C85U U87A U92C C114U G117A,-6.6
13,C62G C70A C85A C98U C124U,-6.66
14,C62U C101U,-0.317
15,G63A U130C,-0.399
16,G63A U130G,-0.913
17,C62A G128C,-3.8
18,G63A U78C C123A,-0.604
19,G63C A105U,-2.44
20,C62A U87A A90U A111C,-5.52
21,C62A G120U G122C,-1.92
22,G61U U106G A108U,-4.45
23,G63A C82U U126G,-2.36
24,G63A U78A A119U,-1.76

row,Variant,polymerase ribozyme fitness (log ratio)
1,G61U G110U A111U,-4.03
2,C62U C94U C98G G110U,-6.52
3,C62U C76U G120C,0.583
4,C62U U92C U116C A119G,0.218
5,C62U C80A A84C,-3.26
6,G63A G93C G113U G135A,-4.37
7,G61U U96G U129G,-1.29
8,G63A A100U,-1.77
9,C62G G128A,-2.8
10,C62U G71C G120U A121C,0.341
11,C62A C88A,-2.76
12,C62A C88U,-2.23
13,G61U C124U,1.52
14,C62G A90G C97U A111C,-1.19
15,C62G C88G A91U U112A,-5.1
16,C62A C72U G117A U129A U130C,-2.9
17,C62A C85A,-2.47
18,C62A C85U,-0.762
19,C62U U106A,0.471
20,C62A A74U U81C,-5.14
21,C62U U87A U92A G120C,-3.58
22,G63A C104U G120A G127A,-0.508
23,C62A C114U,-2.2
24,G63C A83U,-1.48

row,Variant,polymerase ribozyme fitness (log ratio)
1,G63A G77U A105G,-4.78
2,C62G G117A U131G,-4.48
3,C62U C86U G117C U132A,-4.51
4,C62G G110U,-2.94
5,C62G G110A,-3.33
6,G63A C88U C97U G113C,-4.04
7,G63A C101U,-0.216
8,C62A A74G,-5.22
9,G61U U78G C94A U129A,-2.72
10,G63A C98G G117C G128A U133C,-5.29
11,C62U U87C C88G C114A,-3.36
12,C62U C82U C124A,1.29
13,G63C A91U,-2.7
14,G63A U87C,-0.482
15,C62G U78C C79G A111G,-3.51
16,G61U G120C U125A,0.559
17,C62U G117C,-3.31
18,C62G C102U G120U,-5.14
19,G63A A105U,-3.59
20,C62U A90C,-2.52
21,C62U G107U,-4.02
22,C62U G107A,-4.72
23,C62U U78C A100U,-0.796
24,G61U U78C A83U,-0.564

row,Variant,polymerase ribozyme fitness (log ratio)
1,C62G A95G,-1.49
2,G61U U131A,-0.736
3,G63A U96A,-1.81
4,G63A U96C,-1.54
5,C62U C99U C101U,-3.02
6,C62G G135U,-2.31
7,G63A C115A,-1.19
8,C62G U130A,-1.59
9,C62G U126C,-2.05
10,G63A U112A,-0.0284
11,G63A C79U A95U C101U,-0.75
12,C62U G128U,-1.78
13,C62U C94A,-1.69
14,G63A U133G,-1.23
15,G63A G120A G135C,-0.591
16,C62A A105U,-3.07
17,C62A A105C,-3.71
18,C62A G113A,-2.02
19,C62A U81G G120A,-4.65
20,G63A C64A U81G C115G,-6.59
21,C62A A83U U92A U116C,-5.36
22,C62A G117A,-2.71
23,C62A G117U,-3.38
24,G63A U129A,-1.64

row,Variant,polymerase ribozyme fitness (log ratio)
1,G61U G63U,-4.98
2,G61U G63C,-3.05
3,G63C A105G G120C,-2.96
4,C62A C79U C89G U130A,-3.65
5,C62A C124A,1.01
6,C62A C124U,1.51
7,G63A U92A,-4.6
8,C62U A119G,0.565
9,C62U C80G C124G,-5.66
10,G61U U112A,1.27
11,G61U U78C C88U U130G,-0.822
12,G63A C104U C114G,-4.92
13,C62U C124A,1.84
14,G61U U116C,0.227
15,G63A U87G A95U,-1.19
16,C62A C104A G113A,-4.4
17,C62G C86U,-1.34
18,C62A G117C A118C U131C,-5.12
19,G63A U131A,-1.11
20,G63A C88U A118C,-3.02
21,C62G U78C U96C,-3.37
22,C62U G63U U78G,-3.96
23,G63C A103G,-5.66
